In test [1] the target is SARS-CoV-2 spike (RBD)-Fc (SARS-CoV-2) (UniProt P0DTC2). Nature of the test: ELISA; BPS Bioscience #79936 kit: plate coated with spike (RBD)-Fc, serial concentrations of test compound (200-12.5) added, kit completed as in its manual, luminescence. (An ELISA detects its analyte on a solid surface through an enzyme-linked reagent.)
The next test has as its target ACE2-His (human) (UniProt Q9BYF1). Nature of the test: ELISA; BPS Bioscience #79936 kit: ACE2-His held on a 96-well nickel-coated plate, test compound (25-200 µg/mL) incubated 60 min at room temperature, then spike (RBD)-Fc added for 60 min, anti-mouse Fc-HRP, chemiluminescence.

ACE2-His (human), sequence (Q9BYF1 18-805): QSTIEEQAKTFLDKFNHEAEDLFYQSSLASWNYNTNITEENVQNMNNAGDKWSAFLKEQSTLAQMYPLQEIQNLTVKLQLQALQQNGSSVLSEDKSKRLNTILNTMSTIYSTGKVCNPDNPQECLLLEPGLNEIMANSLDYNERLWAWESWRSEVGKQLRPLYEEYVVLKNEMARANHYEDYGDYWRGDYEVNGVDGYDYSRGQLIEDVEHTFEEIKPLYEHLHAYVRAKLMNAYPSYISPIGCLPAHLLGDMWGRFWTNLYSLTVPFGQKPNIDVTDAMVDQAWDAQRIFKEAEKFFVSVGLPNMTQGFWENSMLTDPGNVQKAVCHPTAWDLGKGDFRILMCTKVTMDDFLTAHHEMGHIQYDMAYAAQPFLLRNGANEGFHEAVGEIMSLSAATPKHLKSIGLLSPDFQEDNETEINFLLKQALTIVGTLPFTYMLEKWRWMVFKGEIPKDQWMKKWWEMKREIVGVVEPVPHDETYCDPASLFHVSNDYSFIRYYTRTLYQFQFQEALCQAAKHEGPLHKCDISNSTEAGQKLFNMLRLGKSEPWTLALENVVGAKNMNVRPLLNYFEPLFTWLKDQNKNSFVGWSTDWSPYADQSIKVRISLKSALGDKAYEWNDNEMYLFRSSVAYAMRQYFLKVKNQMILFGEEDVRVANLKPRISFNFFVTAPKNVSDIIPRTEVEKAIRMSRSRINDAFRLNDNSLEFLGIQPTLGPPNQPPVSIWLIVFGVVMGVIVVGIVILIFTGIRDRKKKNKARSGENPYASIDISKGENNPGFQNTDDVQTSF

Turning to bovine lactoferrin (natural protein), the maximum percent inhibition (RBD neutralization) in test [1] is 94%.
On to “bovine lactoferrin (natural protein; other documents disagree on this pair)”, for which the maximum percent inhibition of ACE2/spike at 200 mg concentration in the test with ACE2-His (human) came out at 33%.

The record behind these values is PMC10518009.
